Measured values: the supplement of paper PMC5998384

Assays:
HeLa Kyoto [1] = assay: solubility in G1/S (NP-40 vs SDS abundance) (log2 ratio); higher = more soluble; conditions: cell cycle stage: G1/S
HeLa Kyoto [2] = assay: melting temperature (median over replicates), in situ; higher = more thermally stable
HeLa Kyoto [3] = assay: solubility change mitosis vs G1/S (difference of NP-40 vs SDS log2 ratios) (log2 ratio difference); higher = more soluble in mitosis
HeLa Kyoto [4] = assay: thermal stability score vs G1/S (z-score of summed log2 fold changes over temperatures); higher = more thermally stable than in G1/S
[5] = cell cycle stage: early G1 (4.5 h after nocodazole release)
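Throughout, for melting temperature (median over replicates), in situ: HeLa Kyoto cells synchronized by double thymidine or nocodazole block, proteins quantified by TMT10plex mass spectrometry, three independent biological replicates.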
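Throughout, for solubility change mitosis vs G1/S (difference of NP-40 vs SDS log2 ratios): synchronized HeLa Kyoto cells (double thymidine block for G1/S, nocodazole release for mitosis), protein amounts in NP-40 versus SDS lysates quantified by mass spectrometry, three biological replicates.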
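Throughout, for solubility in G1/S (NP-40 vs SDS abundance): HeLa Kyoto cells arrested at G1/S by double thymidine block, proteins quantified by TMT10plex mass spectrometry in mild NP-40 versus SDS extracts, three biological replicates.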
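Throughout, for thermal stability score vs G1/S (z-score of summed log2 fold changes over temperatures): synchronized HeLa Kyoto cells, proteins quantified by TMT10plex mass spectrometry, three biological replicates, mitosis taken 0.5 h after nocodazole release, G1/S directly after double thymidine block.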

Sequence of ADCK3 (chain, as listed by the source): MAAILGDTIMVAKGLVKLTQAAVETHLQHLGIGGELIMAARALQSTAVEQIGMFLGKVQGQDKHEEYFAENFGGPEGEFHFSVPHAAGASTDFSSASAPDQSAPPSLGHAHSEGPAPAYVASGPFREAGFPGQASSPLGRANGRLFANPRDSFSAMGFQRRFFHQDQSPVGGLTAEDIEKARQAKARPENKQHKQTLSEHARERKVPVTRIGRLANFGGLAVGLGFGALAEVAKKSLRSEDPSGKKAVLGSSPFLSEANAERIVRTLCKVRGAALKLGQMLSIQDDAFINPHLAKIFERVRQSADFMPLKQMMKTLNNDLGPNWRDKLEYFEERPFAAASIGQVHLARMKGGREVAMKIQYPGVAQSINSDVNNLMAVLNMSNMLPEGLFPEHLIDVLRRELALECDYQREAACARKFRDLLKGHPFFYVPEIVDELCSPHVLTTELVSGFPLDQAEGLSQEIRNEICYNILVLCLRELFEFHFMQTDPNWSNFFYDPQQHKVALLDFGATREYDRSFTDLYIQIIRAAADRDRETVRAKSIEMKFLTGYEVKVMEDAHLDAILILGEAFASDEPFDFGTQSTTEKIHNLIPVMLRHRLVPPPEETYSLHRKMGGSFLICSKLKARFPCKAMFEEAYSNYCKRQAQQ

**Q.** Which results are given for “MLPLLRCVPRVLGSSVAGLRAAAPASPFRQLLQPAPRLCTRPFGLLSVRAGSERRPGLLRPRGPCACGCGCGSLHTDGDKAFVDFLSDEIKEERKIQKHKTLPKMSGGWELELNGTEAKLVRKVAGEKITVTFNINNSIPPTFDGEEEPSQGQKVEEQEPELTSTPNFVVEVIKNDDGKKALVLDCHYPEDEVGQEDEAESDIFSIREVSFQSTGESEWKDTNYTLNTDSLDWALYDHLMDFLADRGVDNTFADELVELSTALEHQEYITFLEDLKSFVKSQ [C1QBP]”?
**A.** solubility in G1/S (log2) (HeLa Kyoto [1]): 0.515; melting temperature (HeLa Kyoto [2]; cell cycle stage: G1/S): 52.6 °C; melting temperature (HeLa Kyoto [2]; cell cycle stage: mitosis): 52 °C; solubility change mitosis (log2) (HeLa Kyoto [3]): 0.179; thermal stability score (HeLa Kyoto [4]; [5]): -1.11; thermal stability score (HeLa Kyoto [4]; cell cycle stage: mitosis): -3.14

**Q.** Which results are given for “MSHVAVENALGLDQQFAGLDLNSSDNQSGGSTASKGRYIPPHLRNREATKGFYDKDSSGWSSSKDKDAYSSFGSRSDSRGKSSFFSDRGSGSRGRFDDRGRSDYDGIGSRGDRSGFGKFERGGNSRWCDKSDEDDWSKPLPPSERLEQELFSGGNTGINFEKYDDIPVEATGNNCPPHIESFSDVEMGEIIMGNIELTRYTRPTPVQKHAIPIIKEKRDLMACAQTGSGKTAAFLLPILSQIYSDGPGEALRAMKENGRYGRRKQYPISLVLAPTRELAVQIYEEARKFSYRSRVRPCVVYGGADIGQQIRDLERGCHLLVATPGRLVDMMERGKIGLDFCKYLVLDEADRMLDMGFEPQIRRIVEQDTMPPKGVRHTMMFSATFPKEIQMLARDFLDEYIFLAVGRVGSTSENITQKVVWVEESDKRSFLLDLLNATGKDSLTLVFVETKKGADSLEDFLYHEGYACTSIHGDRSQRDREEALHQFRSGKSPILVATAVAARGLDISNVKHVINFDLPSDIEEYVHRIGRTGRVGNLGLATSFFNERNINITKDLLDLLVEAKQEVPSWLENMAYEHHYKGSSRGRSKSSRFSGGFGARDYRQSSGASSSSFSSSRASSSRSGGGGHGSSRGFGGGGYGGFYNSDGYGGNYNSQGVDWWGN [DDX3X]”?
**A.** solubility in G1/S (log2) (HeLa Kyoto [1]): -0.457; melting temperature (HeLa Kyoto [2]; cell cycle stage: G1/S): 47.4 °C; melting temperature (HeLa Kyoto [2]; cell cycle stage: mitosis): 47.4 °C; solubility change mitosis (log2) (HeLa Kyoto [3]): 0.197; thermal stability score (HeLa Kyoto [4]; [5]): -0.877; thermal stability score (HeLa Kyoto [4]; cell cycle stage: mitosis): 2.82

**Q.** How did the “solubility in G1/S (log2)” value (HeLa Kyoto [1]) turn out when ADCK3 was run?
**A.** Its value is 0.231.

**Q.** And the melting temperature (HeLa Kyoto [2]; cell cycle stage: G1/S)?
**A.** Its melting temperature is 51.1 °C.

**Q.** And the melting temperature (HeLa Kyoto [2]; cell cycle stage: mitosis)?
**A.** Its melting temperature is 50 °C.

**Q.** And the “solubility change mitosis (log2)” value (HeLa Kyoto [3])?
**A.** The value was -0.0659.

**Q.** What about the thermal stability score (HeLa Kyoto [4]; [5]) of the same substance?
**A.** The thermal stability score was 0.477.

**Q.** And the thermal stability score (HeLa Kyoto [4]; cell cycle stage: mitosis)?
**A.** The thermal stability score was -0.51.

**Q.** Which “solubility in G1/S (log2)” value (HeLa Kyoto [1]) does the source give for “MVKLFIGNLPREATEQEIRSLFEQYGKVLECDIIKNYGFVHIEDKTAAEDAIRNLHHYKLHGVNINVEASKNKSKTSTKLHVGNISPTCTNKELRAKFEEYGPVIECDIVKDYAFVHMERAEDAVEAIRGLDNTEFQGKRMHVQLSTSRLRTAPGMGDQSGCYRCGKEGHWSKECPIDRSGRVADLTEQYNEQYGAVRTPYTMSYGDSLYYNNAYGALDAYYKRCRAARSYEAVAAAAASVYNYAEQTLSQLPQVQNTAMASHLTSTSLDPYDRHLLPTSGAAATAAAAAAAAAAVTAASTSYYGRDRSPLRRATAPVPTVGEGYGYGHESELSQASAAARNSLYDMARYEREQYADRARYSAF [RBM4]” here?
**A.** The value was 0.281.

**Q.** What about the melting temperature (HeLa Kyoto [2]; cell cycle stage: G1/S) of the same substance?
**A.** Its melting temperature is 49.6 °C.

**Q.** And the melting temperature (HeLa Kyoto [2]; cell cycle stage: mitosis)?
**A.** The melting temperature was 48 °C.

**Q.** And the “solubility change mitosis (log2)” value (HeLa Kyoto [3])?
**A.** The value was -0.0121.

**Q.** What about the thermal stability score (HeLa Kyoto [4]; [5]) of the same substance?
**A.** Its thermal stability score is -0.245.

**Q.** And the thermal stability score (HeLa Kyoto [4]; cell cycle stage: mitosis)?
**A.** Its thermal stability score is -0.114.

**Q.** ZNF24 was tested. Which “solubility in G1/S (log2)” value (HeLa Kyoto [1]) did it give?
**A.** The value was -0.217.

**Q.** What about the melting temperature (HeLa Kyoto [2]; cell cycle stage: mitosis) of the same substance?
**A.** Its melting temperature is 52.2 °C.

**Q.** What about the “solubility change mitosis (log2)” value (HeLa Kyoto [3]) of the same substance?
**A.** The value was 0.265.

**Q.** And the thermal stability score (HeLa Kyoto [4]; [5])?
**A.** The thermal stability score was 1.15.

**Q.** What about the thermal stability score (HeLa Kyoto [4]; cell cycle stage: mitosis) of the same substance?
**A.** The thermal stability score was 1.78.

**Q.** With SETX as the substance, how does the “solubility in G1/S (log2)” value (HeLa Kyoto [1]) read?
**A.** Its value is -0.385.

**Q.** What about the melting temperature (HeLa Kyoto [2]; cell cycle stage: G1/S) of the same substance?
**A.** The melting temperature was 49.9 °C.

**Q.** And the melting temperature (HeLa Kyoto [2]; cell cycle stage: mitosis)?
**A.** Its melting temperature is 51 °C.

**Q.** What about the “solubility change mitosis (log2)” value (HeLa Kyoto [3]) of the same substance?
**A.** Its value is 0.0473.

**Q.** What about the thermal stability score (HeLa Kyoto [4]; [5]) of the same substance?
**A.** Its thermal stability score is 0.199.

**Q.** And the thermal stability score (HeLa Kyoto [4]; cell cycle stage: mitosis)?
**A.** The thermal stability score was 1.04.

**Q.** Which “solubility in G1/S (log2)” value (HeLa Kyoto [1]) does the source give for “MADIDNKEQSELDQDLDDVEEVEEEETGEETKLKARQLTVQMMQNPQILAALQERLDGLVETPTGYIESLPRVVKRRVNALKNLQVKCAQIEAKFYEEVHDLERKYAVLYQPLFDKRFEIINAIYEPTEEECEWKPDEEDEISEELKEKAKIEDEKKDEEKEDPKGIPEFWLTVFKNVDLLSDMVQEHDEPILKHLKDIKVKFSDAGQPMSFVLEFHFEPNEYFTNEVLTKTYRMRSEPDDSDPFSFDGPEIMGCTGCQIDWKKGKNVTLKTIKKKQKHKGRGTVRTVTKTVSNDSFFNFFAPPEVPESGDLDDDAEAILAADFEIGHFLRERIIPRSVLYFTGEAIEDDDDDYDEEGEEADEEGEEEGDEENDPDYDPKKDQNPAECKQQ [NAP1L1]” here?
**A.** The value was 0.329.

**Q.** What about the melting temperature (HeLa Kyoto [2]; cell cycle stage: G1/S) of the same substance?
**A.** The melting temperature was 49.7 °C.

**Q.** What about the melting temperature (HeLa Kyoto [2]; cell cycle stage: mitosis) of the same substance?
**A.** Its melting temperature is 50.9 °C.

**Q.** What about the “solubility change mitosis (log2)” value (HeLa Kyoto [3]) of the same substance?
**A.** The value was -0.0741.

**Q.** What about the thermal stability score (HeLa Kyoto [4]; [5]) of the same substance?
**A.** Its thermal stability score is 2.07.

**Q.** And the thermal stability score (HeLa Kyoto [4]; cell cycle stage: mitosis)?
**A.** The thermal stability score was 2.03.
